Measured values taken from US12492252.

Molecular target: human GPC3 on cells (HepG2 cells expressing full length human GPC3; GPC3-transfected HEK293T cells) (human) (UniProt P51654)
Assay: cell-based or functional assay

**Q.** GC33 CAR (GC33 Benchmark) was tested. Which IFN-gamma cytokine release (pg/mL), E:T 1:1 did it give?
**A.** Its IFN-gamma cytokine release (pg/mL), E:T 1:1 is 8180 pg/mL.

**Q.** What about the IFN-gamma cytokine release (pg/mL), E:T 1:3 of the same substance?
**A.** The IFN-gamma cytokine release (pg/mL), E:T 1:3 was 2760 pg/mL.

**Q.** And the IFN-gamma cytokine release (pg/mL), E:T 3:1?
**A.** The IFN-gamma cytokine release (pg/mL), E:T 3:1 was 15000 pg/mL.

**Q.** What about the Specific lysis (%) of HepG2 cells, E:T 1:1 of the same substance?
**A.** The Specific lysis (%) of HepG2 cells, E:T 1:1 was 9.78%.

**Q.** What about the Specific lysis (%) of HepG2 cells, E:T 1:3 of the same substance?
**A.** Its Specific lysis (%) of HepG2 cells, E:T 1:3 is 4.57%.

**Q.** And the Specific lysis (%) of HepG2 cells, E:T 3:1?
**A.** The Specific lysis (%) of HepG2 cells, E:T 3:1 was 17.2%.
